Consider four molecules from publication PMC7954794, “Protein context shapes the specificity of SH3 domain-mediated interactions in vivo” (Nature Communications, 2021).

Assay type in all cases: cell-based, Saccharomyces cerevisiae
Test [1] concerns 575 putative partners (preys) of 22 WT SH3-containing proteins. Put plainly: DHFR-PCA on solid medium, WT and SH3-deleted baits (Fig. 1B). More on the design: key to Score: 0: SH3-independent; 1: SH3-dependent PPIs; 2: SH3-inhibited PPIs. Particulars: for medrep (log2 median colony size normalized to plate background, PCA score): label = prey; for Ratio (SH3-deleted/WT medrep): only significant differences shown, PPIs completely lost have a ratio of 0.1, gained PPIs 2.5. The text has this: To assess the requirement of SH3 domains for PPIs in vivo, we first measured binary interactions between 22 WT SH3-containing proteins (Supplementary Fig. 1A) as baits and 575 putative partners from their interconnected signaling networks using the dihydrofolate reductase protein–fragment complementation assay (DHFR-PCA) in the budding yeast Saccharomyces cerevisiae. About 33% (202/607) of the PPIs detected were described before, mostly by direct methods (Supplementary Fig. 1B, C)[11]. We repeated the experiments with baits in which the SH3s were individually replaced with a flexible linker by genome editing (SH3 domain deletion/stuffing, Fig. 1A). The stuffer DNA sequence ([…]) codes for a small flexible poly-Gly with Ser peptide ([…]) that is inspired by previous experiments[12],[13]. About a third of the SH3-containing protein interactome is qualitatively or quantitatively SH3-dependent (171 PPIs out of 607, Fig. 1B and Supplementary Fig. 1B, C). We validated the vast majority of the quantitative changes in low-throughput experiments and excluded that this is simply due to changes in protein abundance in most cases (Supplementary Fig. 1D–G). SH3-binding motifs[14] are more frequent in the SH3-dependent PPI partners when compared to sequences from random proteins, SH3-independent PPI partners or PPI partners that are stronger or gained following SH3 deletions (p values = 1.5 × 10^−17, 0.0038 and 2.1 × 10^−08, respectively; Mann–Whitney test, one-tailed, Fig. 1C). The changes we measure are therefore enriched for PPIs that depend on the direct interactions of the domains with the PPI partners.
The complete list of strains, primers, and gRNAs used in this study can be found in Supplementary Tables 1–3. All constructed yeast strains were validated by polymerase chain reaction (PCR) and confirmed by Sanger sequencing of the locus of interest. Bait strains for the DHFR-PCA experiments were constructed as follows. The genes of interest were fused at their genomic 3′ end by replacing the stop codon with a linker ([…]), the DHFR F[1,2] followed by a smaller linker (GGGGS), a 1× FLAG tag ([…]) and the NATMX4 resistance cassette via homologous recombination (all amplified from pAG25-DHFR[1,2]-linker-FLAG). The set of 615 prey strains (DHFR F[3] fusions in the BY4742 background) were retrieved from the Yeast Protein Interactome Collection[43] with the exception of 73 that were reconstructed (Supplementary Tables 1 and 2). Knockout strains were taken from the yeast knockout collection except for ABP1, BEM1, BZZ1, and SLA1, which were reconstructed by replacing the ORFs with the NATMX4 resistance cassette by homologous recombination in the BY4741 background.
Yeast SH3 domain genomic sequences were replaced by CRISPR–Cas9 genome editing. Each SH3 domain (as defined by the SMART database V8.0 except for Ysc84 SH3 (as defined by PROSITE), see Source Data for all SH3 sequences and Supplementary Table 1 for primers used) was specifically targeted by one gRNA[46]. Yeast competent cells were co-transformed with a pCAS plasmid (Addgene plasmid 60847[47]) expressing both the gRNA of interest and Streptococcus pyogenes Cas9[46] and a donor DNA sequence (stuffer) with 60 bp homology arms surrounding the SH3 DNA sequence. The Stuffer DNA was either PCR amplified or digested from a plasmid. The stuffer DNA sequence ([…]) codes for a small flexible linker ([…]) inspired by protein linkers used in structural biology[12],[13]. This type of linker is frequently used for fusing proteins without affecting the structure of the linked proteins.
The overall DHFR-PCA pipeline is based on Tarassov et al.[43] and the procedures have also been published as a visualized protocol. The screens were performed with robotically manipulated pin tools (BM5-SC1, S&P Robotics Inc.). First, the preys were cherry-picked from 96-well plates to omnitrays in a 384 format on YPD + HPH solid media. […]

A further test concerns ABP1. Briefly: DHFR-PCA on solid medium, bait ABP1 (Fig. 1B). Particulars: bait ABP1, label = prey; for medrep (log2 median colony size normalized to plate background, PCA score): 2-4 replicates. An excerpt:
Supplement 41467_2021_21873_MOESM8_ESM.xlsx, sheet "Fig1B" | column: medsize; medrep; Ratio; Score

For the next test, the system named is Abp1 PPIs. Put plainly: DHFR-PCA of Abp1 SH3-swapped baits (Fig. 2B-D, S2C, S2F). Particulars: Fig2B; bait ABP1, label = prey; Replicates 4. An excerpt:
Having determined that multiple PPIs require SH3s, we asked whether the latter establish PPI specificity independently from their host proteins by swapping domains (Fig. 2A). Using the second round of genome editing, we individually replaced Abp1 SH3 with the 27 yeast SH3s and 3 human Abp1 orthologs’ SH3s (CTTN, HCLS1, and DBNL, Fig. 2B). The reintroduction of its own SH3 (Abp1SH3 in Abp1) reconstitutes almost perfectly Abp1’s interaction profile (Kendall’s τ = 0.93, Fig. 2B). […] No homologous SH3 domain fully re-establishes the normal Abp1 PPI profile (Fig. 2B and Supplementary Fig. 2C). However, we observe a significant correlation (cophenetic correlation = 0.20, p value = 0.005, Fig. 2C) between the similarity of PPI profiles (Fig. 2B) and the sequence similarity of the SH3s. […] Nonetheless, a subset of SH3-dependent PPIs is only observed with the endogenous domain. For instance, Hua2 and App1, both well-characterized partners of Abp1[14],[18],[19], are only detected when Abp1 contains its own SH3 (WT or swapped via editing). A given SH3 may therefore not be fully replaceable with other paralogous or orthologous domains. This pattern is confirmed by cellular growth phenotypic analyses (Supplementary Fig. 2D, E). PPIs, SH3 sequence similarity, and growth profiles under stress conditions are correlated (Supplementary Fig. 2D, E). This relationship is particularly clear when analyzing growth on media supplemented with hygromycin.
The stuffing of YSC84 SH3 rendered the strain sterile and was therefore not used for this study as the assays require crosses. For genes containing two SH3s (BZZ1 and BEM1), a combination of this first stuffer with a second one ([…]) coding for a highly similar linker ([…]) was used, which allowed targeting each SH3 position independently. The two N-terminal domains of SLA1, which are separated by six nucleotides, were stuffed by a single stuffer. Cells containing pCAS were selected via the G418 resistance cassette from the plasmid on YPD plates (YPD + NAT 100 μg/ml (DHFR F[1,2] selection) + G418 200 µg/mL (Bioshop Canada)). Colonies were randomly selected and grown in YPD media without G418 to allow plasmid loss. The correct insertion of the stuffer was validated by PCR and Sanger sequencing. The SH3-swapped, -shuffled, and -mutated strains were constructed following a second CRISPR–Cas9 editing step with the same procedures. The stuffer sequences were targeted by specific gRNAs (one gRNA per stuffer) and replaced by PCR amplified specific SH3 (with 40 bp homology arms) or libraries of mutated SH3 domains for Deep Mutational Scanning (DMS) with 78 bp flanking homology regions. Validation of the SH3 domain insertions was done as we previously described except for DMS libraries (see below).
The overall DHFR-PCA pipeline is based on Tarassov et al.[43] and the procedures have also been published as a visualized protocol. The screens were performed with robotically manipulated pin tools (BM5-SC1, S&P Robotics Inc.). First, the preys were cherry-picked from 96-well plates to omnitrays in a 384 format on YPD + HPH solid media. Plates were then combined into the 1536 format on YPD + HPH. The array was constituted of 575 preys previously shown to interact physically with at least one SH3-containing protein as reported in BioGRID V3.4.16 along with 40 negative controls. The prey array comprised a border of control strains of two rows and two columns corresponding to the PPI between LSM8-DHFR F[1,2] and CDC39-DHFR F[3]. This double border was used to remove border effects. Preys are present in duplicate at a randomized position in the 1536 array (except for YAL041W which is present four times per array). Baits were crossed with two prey plates, resulting in four independent bait–prey tests for each PPI. Baits were grown in liquid YPD + NAT and then transferred on solid YPD + NAT omnitrays. They were then replicated on YPD + NAT omnitrays in 1536 array format. […]

[2] abbreviates: bait SLA1-2, DHFR-PCA, Replicates 4 (2 for YCR009C, YDR388W).
Where [3] appears, read: bait SLA1-3, DHFR-PCA, Replicates 4 (2 for YCR009C, YDR388W, YIL033C).

B1: YJL201W (protein, UniProt P32525 1-599, looked up)
Protein ECM25: MIDINVNNIFFRSYSVDPNSGHAIYVFDSTYLPASDEIGDKQVYDLLINALMDRLVMKLPQAPYSLVIFSSGFSQRKISWVYGIKMFAKLPKETKFYLQKIFIVHESFFVRSVYQVISNAMNFNFLDSKDSQHDFPSLVHVLDLTSLSELIDITRLRISLNVYLYDYQIREHINVPEEYYNRLTPLAIRQYRQLVFDKIFKKLQNDALLCELIFQKPGNYKKVNIFLDIIKRNNYIDLSQWDIYSLASVWLNYFIKNKAKPLIPIELIPLPIVDDLKFTSETFRKIIKFNQYQDLFMVIIPFFNRIIAHGESTKHDSRTLSKALTPALCKEKLSMMTNDRLAIGSRYIKNLLDFFPEIAKEISSPPSSVSSSSTIPVLPKPRKSSPTRYSELGCLTLPRSRSPSPQRSVTSPTYTPVALQNTPVLKPKSSSRNVSSPSFNAKPPLPIKAVTRPQLSLTSNSNTDLALASSSTDTLSSPTKTPSADSLPLSNSSTDLTISDNIKEMVKDEPAKDKNSVETDIFVQQFESLTLVQNAKIKKFDKELQEKKKKNETTSKTADKFSQKGYSDIKASNKVSRLAALYEERLQGLQVMNEMKQRW
B1: the “medrep (log2 median colony size normalized to plate background, PCA score)” value in test [1] (setting [2]) turned out to be 1.384; in test [1] (setting [3]), 1.384; with ABP1, 3.816. Also, the Score in test [1] (bait SLA1-2, label = prey) turned out to be 1; in test [1] (bait SLA1-3, label = prey), 0. In test [1] (bait SLA1-2, label = prey), the “Ratio (SH3-deleted/WT medrep)” value is 0.1.

B2: YGR037C (protein, UniProt P31787 1-87, looked up)
Acyl-CoA-binding protein: MVSQLFEEKAKAVNELPTKPSTDELLELYALYKQATVGDNDKEKPGIFNMKDRYKWEAWENLKGKSQEDAEKEYIALVDQLIAKYSS
Take B2: the “medrep (log2 median colony size normalized to plate background, PCA score)” value in test [1] (setting [2]) stood at 1.385; in test [1] (setting [3]), 1.385; in the test with ABP1 it was 3.115. The Score in test [1] (bait SLA1-2, label = prey) was found to be 1; in test [1] (bait SLA1-3, label = prey), 1. Moreover, the “Ratio (SH3-deleted/WT medrep)” value in test [1] (bait SLA1-2, label = prey) worked out at 0.1; in test [1] (bait SLA1-3, label = prey), 0.1.

B3: YBL071W-A (protein, UniProt Q3E840 1-82, looked up)
Diphthamide biosynthesis …: MSTYDEIEIEDMTFEPENQMFTYPCPCGDRFQIYLDDMFEGEKVAVCPSCSLMIDVVFDKEDLAEYYEEAGIHPPEPIAAAA
With B3, in the test with Abp1 PPIs, the “medrep (log2 median colony size normalized to plate background)” value came out at 1.454 and the “medsize (median colony size)” value turned out to be 388. Further, the “medrep (log2 median colony size normalized to plate background, PCA score)” value in the test with ABP1 was determined as 1.99. In the test with ABP1 (only significant differences showed, PPIs completely lost have a ratio of 0.1 and the gained PPIs 2.5), the “Ratio (SH3-deleted/WT medrep)” value is given as 1.369.

B4: YIL095W (protein, UniProt P40494 1-810, looked up)
Actin-regulating kinase PRK1: MNTPQISLYEPGTILTVGSHHAKIIKYLTSGGFAQVYTAEISPPDPYSNANIACLKRVIVPHKQGLNTLRAEVDAMKLLRNNKHVVSYIDSHAARSVNGIAYEVFVLMEFCERGGLIDFMNTRLQNRLQESEILEIMSQTVQGITAMHALQPPLIHRDIKIENVLISHDGLYKVCDFGSVSGVIRPPRNTQEFNYVQHDILTNTTAQYRSPEMIDLYRGLPIDEKSDIWALGVFLYKICYYTTPFEKSGEAGILHARYQYPSFPQYSDRLKNLIRLMLMEAPSQRPNICQVLEEVSRLQNKPCPIRNFYLLRAMNQNANTQLAGEPSSTTYVPTQKFIPVQSLQSINQPPNMMPVTHVSTTPNLGTFPISINDNNKTEVTAHAGLQVGSHSNLTSPLMKTKSVPLSDEFASLYYKELHPFQKSQTFKSVESFQSPQRKSMPPLSLTPVNNDIFDRVSAINRPNNYVDSETQTIDNMAVPNLKLSPTITSKSLSSTKEIAAPDNINGSKIVRSLSSKLKKVITGESRGNSPIKSRQNTGDSIRSAFGKLRHGFTGNSVNNSRSASFDNNNVNGNGNNTNRRLVSSSTSSFPKFNSDTKRKEESDKNQRLEKRRSMPPSILSDFDQHERNNSRTGSRDYYRSHSPVKKTQASAKTTSKPTLIPDNGNVNINQEKKESIQRRVHNLLKSSDDPVTYKSASGYGKYTDIGTETSNRHSSVRITPITEEKFKKTLKDGVLDIKTKSNGKDKSRPPRPPPKPLHLRTEIQKIRNFSRLQSKKLPIERISSEATETIVDVNVDDLEADFRKRFPSKV
Turning to B4, the “medrep (log2 median colony size normalized to plate background, PCA score)” value in test [1] (setting [2]) was found to be 1.8519; in test [1] (setting [3]), 1.8519; in the test on ABP1, 4.25. Besides, the Score in test [1] (bait SLA1-2, label = prey) came out at 1; in test [1] (bait SLA1-3, label = prey), 0. In test [1] (bait SLA1-2, label = prey), the “Ratio (SH3-deleted/WT medrep)” value came out at 0.1.
